Data taken from the DeepSol protein solubility set.

Assay: soluble on expression in E. coli; label from the status in PepcDB or PDB records

Row | Sequence | soluble on expression in E. coli
1 | MDFSEASTSGDRVNGFAKPFPPKPREGAPPPAPPLAPGASTSQAPPPLQPPPVIESAEKFYVPGVEEKSKFRILSQQVEISNLNISTRSFNVRTEIVLLPCEKSLYQLDLHIGKCSLLPNEVPGSASKVTLNGVECEYSRRDFWKDLAQEKSISSLEPVLYEKLAENDYELQILIPKEVRKKIKHRKAVRLRVDTVVRDPPRGLQFVDFNEHDCHVFTYHTPHISGAREWTVCLDEPDQLALWELTFELEPHLVPVASGELEEKREVSENGKIRYKFHQTVPTSACNIGWAIGRFKLEPHPESPTIYTFSLPGLEPFVNHTTMYLDKMVEFLEEKLSCRFPYPTLKVVFVDQCTEEIQVYSSLLIVPTAMLYHKKIIDVVQEARQKLIFSIALQFFGCLISPAQWWHWWIPVSIARFLTSLYVETKLGTAEARWQLKRAMDDVCDYEHQWGKIVLSPPEPTKKLPLHVDPRHEYTASPLYVEAMLKKGFLTMRMLQRRIGLEPFMRVLHRVLTVGLDMSEKKTTPAAWRHLLTTTESFFRSVISVTGKEIPSFLSQFVRTGGHAAFAVKFDFNRKRNIVEIEIKQDDTEGNGRTQYTGPLSVVVQEVDGAFTHTIQIDGAVSHAEISCHSKGRKQRKKKVPLLTGEEIEIDLTNMDAESPILWLRIDPDYLLIREITISQPMFHWEYMLRYERDVIAQMEALERIQALPSAHSRSVIVDAVANEKFFYRIRYRAAFVLTFVQNRKSEALTVGTPVLINMFRESFGSKAATNIPRSNNFVVTAQNLQQYFVMQALPQAIARLRRQSGECHEDVQPFLLDLIKFNDNSTNRYSDDFYRAALYNSLASSVFPHDALPCHVELPENLSNDVRVLIKEFTYALNMDTVSPSWGRVVGAAALTGLYQLQKCGYLPLDSQLLWTFSHPNCCVQMRRCAITLIIDRIVNDPHAADTRMLDLSRILELAELEQDPSIRRMIPRLLAQTPPTIFGSENAANTAETAERLWKLCTNSSIDSCIRSGFLDVYYSLYALGAPPALGGPEESVGIHRAYVTVPNAASTFATSQWHNSGYEAARRSPPRRDFGDETMNLMQ | soluble
2 | MSLKTLTRFLIIPMLSVAFFSCSESHFLKDVAYRNQVTQDFEMKKQQLPNGELFAVFNEKLTIPEQEALMFLYAYMPTGDVTDYTGDYYLENVRLSDQARREMPWGKEIPDDVFRHFVLPIRVNNENLDDSRRVFYNELKDRVKNLSLHDAVLEVNHWCHEKVIYTPSDARTSAPLASVKTAYGRCGEESTFTVAALRSVGIPARQVYTPRWAHTDDNHAWVEAWVDGKWYFFGACEPEPVLNLGWFNAPASRGMLMHTKVFGRYTGEGHHHHHH | not soluble
3 | MTEPLILQPAKPADACVIWLHGLGADRYDFMPVAEALQESLLTTRFVLPQAPTRPVTINGGYEMPSWYDIKAMSPARSISLEELEVSAKMVTDLIEAQKRTGIDASRIFLAGFSQGGAVVFHTAFINWQGPLGGVIALSTYAPTFGDELELSASQQRIPALCLHGQYDDVVQNAMGRSAFEHLKSRGVTVTWQEYPMGHEVLPQEIHDIGAWLAARLG | soluble
4 | MPCAETFGSEYFLAQGSPVNSTATPPEPLPPFLQPGDRVLLFDGVCKLCNASVRFVIRHDSQRRIKLASVQSPQGQALLAWFGLPTEQFDSVVLIEEGRLSQRSDAFIRLMAQLPAPWRWLRLLRGVPRPLRDWVYDLIARNRYRLFGRLDVCLLPSPDHQGRFLDDPSLEHHHHHH | not soluble
5 | MSSSHSRAGQSAAGAAPGGGVDTRDAEMPATEKDLAEDAPWKKIQQNTFTRWCNEHLKCVSKRIANLQTDLSDGLRLIALLEVLSQKKMHRKHNQRPTFRQMQLENVSVALEFLDRESIKLVSIDSKAIVDGNLKLILGLIWTLILHYSISMPMWDEEEDEEAKKQTPKQRLLGWIQNKLPQLPITNFSRDWQSGRALGALVDSCAPGLCPDWDSWDASKPVTNAREAMQQADDWLGIPQVITPEEIVDPNVDEHSVMTYLSQFPKAKLKPGAPLRPK | soluble
6 | MGSDKIHHHHHHMDFQEKIEELRKIIKDNIEPLITSDYVHLDNPYHGNIGDILIWEGERQFLSSIKYKCLQSSSNSWCENYLHPETVILFNGGGNFGDLYRECQDFRLRVIEQFPNNRIIMFPQSIWYEDESLIAKDAAVMARHNDLTLCARDKWSYNFLKEHFGKNKILLVPDMAFYISDEYLNKYRECVFWGQKLYLRRIDKEMDFSTILDDLRGFDIRDWPSLERRPICLLILRIMKRAAYYLQKITCLTVLQRFVNRLADEYAIRIVRPYLLKRGCDFISPYSEVITTRLHGLILSILFHKPVYYINNTTGKLSAYVDTWHLQDILEVSPYVDKILEKHVD | not soluble
7 | MAAKVEPFWKRKTLAQLDQDEWESLCDGCGLCCLQKLEDEDDGSVYYTRIACKLLDLQSCRCTNYAERIRFVPDCIQLTPAQADEFQWLPPTCGYRLVAEGKDLPLWHHLVCGDPERVHKERISQSGRMLSETQVAEDDWEDYLIFRAG | not soluble
8 | ISEFGSCPPGQFRCSEPPGAHGECYPQDWLCDGHPDCDDGRDEWGCG | soluble
9 | MSLEVRWNEYLSRNGSLFSSDELSGASPPSVFVGSYGYPRVGVGPMVPPVHGDTSLMDAPERWAGRPLDEIVNYRLSLVRGIRKTRVTGTSGRYIEGLQEAAMSRRPVDSDIRFEKPVSPAALADGCCAPFGPVGEIRRASFGGSSADGAIERAYYDRDLGAADAAVALYDGGTEISRIQGCLSVGMLGRRRKLVPTRWSITAVDDMVSKRLVGRIKDAPVSDAHQVFHYVHMGNLFSVVLFPHRWLFEMMEAYYSGGVLGFGADHEDARGLDHAPATAGAHFASRLAVAEHLCGRGVQAGALVLREIRAEYSVPVGVWQVREGLRAAMAQKPFVAGSLDEAIDEACRPMSISRNEWLSHGSIMRLVRQRTLSEFFEGHHHHHH | not soluble
10 | MGHHHHHHSHMANSAGSMANSAGSKEFAYQNKVEELTSYAVQIANEFQSGQVDMRRLYPYQDILSTRKTQFIIFNEEQQPYFLPEGFHHPPREQLKKSEWNKLKKGQTVTIRADGRFDDEVSLVAQPIFVQNEFKGAVLLISPISGVEQMVNQ | not soluble
11 | MATFEEVSVLGFEEFDKAVKEHESKTIFAYFSGSKDTEGKSWCPDCVEAEPVIREGLKHVTEDCVFIYCQVGDKPYWKDPNNDFRQKLKITAVPTLLKYGTPQKLVESECCQSSLVEMIFSED | soluble
12 | MTSVLDPDRALEDEAKDKFGFVGIAKQLAPPIIEAAKGEGMVIGLEGRWGSGKTSLLNFLRAELQASKKSGIHTITIAPWLNGDTSSLVLSLLEPMAAVLKQKEDELAESYGEGQSATKERVAEVGRLLRAYGPKTARRIASLANVAGYVLPGAQAIGGALAASASAADEIFDVGPTPSELKQELAVKIQELNVGFIVILDDLDRLEPEQAVEVVRLVRSVADFPKVVYLMCYDREVLSEALKTGLKVSDGDLFLQKIVQLTFNIPLPEPFDLRTQFRNEAKAIYFEATGVDLDGAILHDLTYAVDREGMGLSTPREVKLALNSIRFVFSQVKDDVYFPDLCRLHLIKTTNYKLYKWLEIYLSVRSVLVTGDATVSEDEKTKMGEELKMLLPASGPGSVHSIWSLARFIPGVVDTEKVSERVFNAINSSAISEAVRLKRLGSPLHYRFYFALTGPKTVMPDEDFNAILELARNDIDQLESRLAAETMKRRDSGRTWFEHVLDRLDDDCISSLDESQLSGILHALSGMMDIAMKEDGEVRSFALSLDGIANIVAKRCLVRLRELNPEKQANTVRSMAQDGKAINWLVGKFFRSQLFNHGKVGERAERPEQWEISEDLLDDIIEILRKRLSEQDIKNLIPNLPNVSAYLYGWMNLTDDDQAKNWVQEYSESDEGFLDILNHLRGWAMSDKVYYPLSEKTVSSFLDWNEVKTRLDGMQSGEFSDKLEHHHHHH | soluble
13 | MRGSMGAMHVLTLDLAPVTPKDAPLLHRVFHLSPSYFALIGMELPTLEDVVRDLQTLEVDPRRRAFLLFLGQEPVGYLDAKLGYPEAEDATLSLLLIREDHQGRGLGRQALERFAAGLDGVRRLYAVVYGHNPKAKAFFQAQGFRYVKDGGPTLTWYVRPL | soluble
14 | GVKYAYHGGAMANGIASVELVVALGKAGFLCSFGAAGLVPDAVEDAIKRIQAELPNGPYAVNLIHAPAEEALERGAVERFLKLGVKTVEASAYLGLTEHIVWYRLAGLSKNSDGSVKIGNKVIAKVSRTEVGRRFMEPAPQKLIDKLLAQGKVTQEQAELSKLVPMADDITAEADSGGHTDNRPFLTLLPTIIALRDEVQAQYNFSPALRVGAGGGIGTPEAALAAFNMGSAYIVLGSVNQACVEAGASEYTRKLLAQVEMAD | not soluble
15 | MAHHHHHHMAQSLVWRYLGPEDTHRCLDAPDVPSVRNLLVEIDDGMDGKLINCRNYNKGQLMIVLDMLAHLIVFTKTCSMSLEKVSTIVGIMLELHRESMSNQYTRSQSYHRLRELMLLHSVPRPPFSCGIFSVADVQHIDEYLLLSYFRHYKMYVYAFVPQRLANIHSVSVGHNHCVPPLGLPALTTATPRAEWIAKVEDTHRQMEERQMEVEDVRSAEYEEEWLKHRYLNGTHYSEGLREQLQSIKRDVSDKALNQLDLIEARLVEIEKKVEIVQQRQDGKGGKRKK | not soluble
16 | MNPDNLAKLIDELSAMFHPTERDRPHGRWVEAPKSAPPSKRRRSKTAYQLKITLNGIRPPIWRRVLVPGHATFHELHLIIQEAMGWEQAHLYEFDFGSVLIGIPDGWDSFQLEKELMDARRIPLQQWLTEEKQKFLYIYDFGDYWRHTVTVEKIETLPKPLERAACLKGKRACPPEDCGGVYGYLELLEAAAQKDSLADPELRELVDWMYDMKGEDFDPDAFDVEEANERLAYIRL | not soluble
17 | MQAGPALMSEVASRELRNDTAGVLRRVRAGEDVTITVSGRPVAVLTPVRPRRRRWLSKTEFLSRLRGAQADPGLRNDLAVLAGDTTEDLGPIR | soluble
18 | MNTVFSNIANAKITEKSLNAVWMDLFKSADEVLMATGYVSNDAVVELHKILELNDHIQKIDLLVGMHYLEGFSHLQYDSLCKLNDFLRHEKRGAVYVSPFVKFHGKMYSFKNYQKINGLIGSANLTCFWDSTERTYETMLHLNGKPAQILQADIQSTIHKLGKNIQEVERPSKFIEHNSHLENCLGVQKIAPEQIRQLFAQTSEYHFSIPAKTEEKSNLNVFFGEGRRDKRGFVKPRPWYEVELIVSKDITSQEGYPVLKSFTVITDDGWQFQCKTSGDYSKNFRSENDLKTLGKWIKGRLESHGCLQNNEKITHETLREYGNDHFELRSTDNPDVWLLSFKGKN | not soluble
19 | MAKIVLVLYDAGKHAADEEKLYGCTENKLGIANWLKDQGHELITTSDEEGGNSVLDQHIPDADIIITTPFHPAYITKERIDKAKKLKLVVVAGVGSDHIDLDYINQTGKKISVLEVTGSNVVSVAEHVVMTMLVLVRNFVPAHEQIINHDWEVAAIAKDAYDIEGKTIATIGAGRIGYRVLERLVPFNPKELLYYDYQALPKDAEEKVGARRVENIEELVAQADIVTVNAPLHAGTKGLINKELLSKFKKGAWLVNTARGAICVAEDVAAALESGQLRGYGGDVWFPQPAPKDHPWRDMRNKYGAGNAMTPHYSGTTLDAQTRYAQGTKNILESFFTGKFDYRPQDIILLNGEYVTKAYGKHDKK | soluble
20 | MGSDKIHHHHHHMSLTIDGVTKKFGTFTAVNNLHVSVPKGEMFGMLGANGAGKTTTFRMILGLLEPTEGTIHWREQPLTYNQTNCIGYLPEERGLYPKLTVKDQLKYLGRLKGMKTQDIQKEMKMWLERFEVPEYEHKRVEQLSKGNQQKIQFIASVLHRPELLILDEPFSGLDPVNVELLKKAVIDLKKEGTTILFSSHRMEHVEELCQHLCILHRGSPVVEGNLKNIKRSFGKKNVIIQGEFALEPLVDIPGVLRHQETSAGAKFQIANEETAKLLFQAVATAGFVQKFELEEPSLHDIFVEKVGTRYE | not soluble
